The values that follow come from PMC7703929, “Unraveling the mechanism of recognition of the 3’ splice site of the adenovirus major late promoter intron by the alternative splicing factor PUF60”.

Series [1] deals with PUF60 RRMs (human, UniProt Q9UHX1 118-316, C129S;C255A). The series is described as follows: fluorescence anisotropy; Kd1, two-site sequential model; FA: 50 mM Tris-HCl, 150 mM NaCl, 20 uM EDTA, pH 8.0, room temperature, 10 nM probe; EMSA: same buffer, 5 uM RNA, 5.5% native gel in 0.5X TBE at 4 C; crystals: 0.1 M Tris-HCl pH 8.7, 25% PEG 4000, 5-10 mM BaCl2, 20 C. The note with it: protein: recombinant; tags: His tag removed by TEV; chain copies: 2; label: 5'-fluorescein.
Sequence of PUF60 RRMs (Q9UHX1 118-316 C129S/C255A): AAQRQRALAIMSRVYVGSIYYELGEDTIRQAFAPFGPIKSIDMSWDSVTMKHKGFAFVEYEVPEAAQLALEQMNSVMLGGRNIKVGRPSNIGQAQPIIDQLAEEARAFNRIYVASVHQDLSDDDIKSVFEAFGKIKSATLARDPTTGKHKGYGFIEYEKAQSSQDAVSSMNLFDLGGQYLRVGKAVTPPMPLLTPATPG

The target in series [2] is T1, PUF60 RRMs+UHM (human, UniProt Q9UHX1 118-559, C129S;C255A;C487A). The description is as above. Conditions: protein: recombinant; tags: His tag removed by TEV; N-terminal GRGS left; chain copies: 2; label: 5'-fluorescein.
T1 sequence (Q9UHX1 118-559 C129S/C255A/C487A): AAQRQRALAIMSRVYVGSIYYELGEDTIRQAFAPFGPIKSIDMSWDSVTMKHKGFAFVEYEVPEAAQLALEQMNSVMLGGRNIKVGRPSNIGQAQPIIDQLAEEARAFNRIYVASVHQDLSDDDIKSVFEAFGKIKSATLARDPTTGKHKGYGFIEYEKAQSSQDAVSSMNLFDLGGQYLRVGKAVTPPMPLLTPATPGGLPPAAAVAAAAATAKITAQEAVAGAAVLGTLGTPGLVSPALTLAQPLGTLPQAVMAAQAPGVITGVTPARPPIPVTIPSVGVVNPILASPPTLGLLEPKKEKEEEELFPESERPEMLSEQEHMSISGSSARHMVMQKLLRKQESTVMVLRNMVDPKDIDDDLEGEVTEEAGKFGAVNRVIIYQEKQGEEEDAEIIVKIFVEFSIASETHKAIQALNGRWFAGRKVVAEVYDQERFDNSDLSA
Series [3] has as its target T2, SF1 1-260 (human, UniProt Q15637 1-260, C171A).
T2 sequence: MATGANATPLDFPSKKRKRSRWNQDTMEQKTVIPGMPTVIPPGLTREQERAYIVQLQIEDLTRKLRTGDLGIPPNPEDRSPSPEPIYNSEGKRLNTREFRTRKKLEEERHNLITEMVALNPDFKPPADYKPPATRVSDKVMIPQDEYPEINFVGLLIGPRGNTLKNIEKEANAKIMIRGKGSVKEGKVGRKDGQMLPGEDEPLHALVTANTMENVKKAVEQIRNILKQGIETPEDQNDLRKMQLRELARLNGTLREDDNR
The series can be described thus: EMSA; SF1 up to 40 uM, RNA 5 uM; FA: 50 mM Tris-HCl, 150 mM NaCl, 20 uM EDTA, pH 8.0, room temperature, 10 nM probe; EMSA: same buffer, 5 uM RNA, 5.5% native gel in 0.5X TBE at 4 C; crystals: 0.1 M Tris-HCl pH 8.7, 25% PEG 4000, 5-10 mM BaCl2, 20 C. Conditions: protein: recombinant; tags: His tag removed by TEV; N-terminal G left. In general terms: A gel shift assay detects complexes by their altered migration in electrophoresis.

Series [4] has as its target T1, PUF60 RRMs+UHM. The series is described as follows: EMSA; two conformations at 20 uM PUF60; RNA 5 uM; FA: 50 mM Tris-HCl, 150 mM NaCl, 20 uM EDTA, pH 8.0, room temperature, 10 nM probe; EMSA: same buffer, 5 uM RNA, 5.5% native gel in 0.5X TBE at 4 C; crystals: 0.1 M Tris-HCl pH 8.7, 25% PEG 4000, 5-10 mM BaCl2, 20 C. The note with it: protein: recombinant; tags: His tag removed by TEV; N-terminal GRGS left; chain copies: 2.

Series [5] has as its target PUF60 RRMs+UHM;SF1 1-260 (human;human, UniProt Q9UHX1;Q15637 118-559;1-260, C129S;C255A;C487A|C171A). The series is described as follows: EMSA; further upward shift with both proteins, suggests ternary complex; FA: 50 mM Tris-HCl, 150 mM NaCl, 20 uM EDTA, pH 8.0, room temperature, 10 nM probe; EMSA: same buffer, 5 uM RNA, 5.5% native gel in 0.5X TBE at 4 C; crystals: 0.1 M Tris-HCl pH 8.7, 25% PEG 4000, 5-10 mM BaCl2, 20 C. Conditions: protein: recombinant;recombinant; tags: His tag removed by TEV; N-terminal GRGS left;His tag removed by TEV; N-terminal G left; chain copies: 2;1.

Sequence of PUF60 RRMs+UHM;SF1 1-260 (Q9UHX1 118-559 C129S/C255A/C487A, one chain of several): as the sequence (Q9UHX1 118-559 C129S/C255A/C487A) above

B1: *AdML3' (ssDNA)
DNA: GAUGUCAUACUUAUCCUGUCCCUUUUUUUU
modifications: deoxyribose backbone with A, U, C, G bases (dU)
As for B1, the Kd (usually the free concentration of one partner at which half of the binding sites on the other are occupied at equilibrium, for simple one-to-one binding) came to 3.64 ± 3.6 µM in series [1] and 4.61 ± 1.19 µM in series [2].

B2: AdML3' RNA (ssRNA)
RNA: GAUGUCAUACUUAUCCUGUCCCUUUUUUUU
On to B2, for which the binding result in series [3], in series [4] and in series [5] was “binds” each time.
